Test results as given in paper PMC9482650, “Quantitative fragmentomics allow affinity mapping of interactomes” (Nature Communications, 2022).

Experiments:
Experiment in all cases: holdup assay
Design in all cases: key: below the threshold = too weak to quantify, mostly under pKd 3.1 to 4
Details in all cases: plain residues with an end cap or a label only (N-terminal biotin on a linker: ado-ado)
GORASP1, Q9BQQ3 = biological target: GORASP1, Q9BQQ3
GRID2IP_2, A4D2P6 = biological target: GRID2IP_2, A4D2P6
Chain of GRID2IP_2, A4D2P6 (A4D2P6 272-370): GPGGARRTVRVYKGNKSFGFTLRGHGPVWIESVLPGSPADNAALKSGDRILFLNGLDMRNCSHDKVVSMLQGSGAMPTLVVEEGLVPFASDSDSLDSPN

SNX27, Q96L92 = biological target: SNX27, Q96L92
DLG5_1, Q8TDM6 = biological target: DLG5_1, Q8TDM6
Chain of DLG5_1, Q8TDM6 (Q8TDM6 617-713): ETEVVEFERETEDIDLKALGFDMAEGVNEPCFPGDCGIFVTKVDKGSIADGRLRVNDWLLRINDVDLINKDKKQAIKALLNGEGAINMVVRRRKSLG

FRMPD4, Q14CM0 = biological target: FRMPD4, Q14CM0
Chain of FRMPD4, Q14CM0 (Q14CM0 67-160): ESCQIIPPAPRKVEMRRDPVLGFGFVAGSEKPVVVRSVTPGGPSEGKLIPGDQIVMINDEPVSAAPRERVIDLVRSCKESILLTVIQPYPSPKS

APBA3_1, O96018 = biological target: T1, APBA3_1, O96018
T1 sequence (O96018 389-490, limits assumed, looked up): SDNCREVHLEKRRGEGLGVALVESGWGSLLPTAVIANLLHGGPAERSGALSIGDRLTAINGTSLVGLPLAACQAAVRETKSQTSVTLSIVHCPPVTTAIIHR

AHNAK1, Q09666 = biological target: AHNAK1, Q09666
Chain of AHNAK1, Q09666 (Q09666 4-100): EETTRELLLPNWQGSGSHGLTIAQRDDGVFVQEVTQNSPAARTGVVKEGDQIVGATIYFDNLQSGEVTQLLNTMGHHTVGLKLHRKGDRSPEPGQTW

PDZD2_2, O15018 = biological target: T2, PDZD2_2, O15018
T2 sequence (O15018 329-429, limits assumed, looked up): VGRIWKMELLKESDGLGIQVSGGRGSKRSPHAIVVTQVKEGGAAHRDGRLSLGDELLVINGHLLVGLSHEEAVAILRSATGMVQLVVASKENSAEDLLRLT

SIPA1L2, Q9P2F8 = biological target: T3, SIPA1L2, Q9P2F8
T3 sequence (Q9P2F8 945-1036, limits assumed, looked up): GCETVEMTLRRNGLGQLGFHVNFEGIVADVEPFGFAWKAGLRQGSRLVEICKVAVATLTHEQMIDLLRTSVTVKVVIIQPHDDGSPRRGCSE

LNX2_3, Q8N448 = biological target: T4, LNX2_3, Q8N448
T4 sequence (Q8N448 463-564, limits assumed, looked up): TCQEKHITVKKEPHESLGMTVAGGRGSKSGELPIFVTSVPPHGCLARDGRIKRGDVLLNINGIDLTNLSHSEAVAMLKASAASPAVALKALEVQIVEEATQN

GIPC2, Q8TF65 = biological target: GIPC2, Q8TF65
Chain of GIPC2, Q8TF65 (Q8TF65 112-203): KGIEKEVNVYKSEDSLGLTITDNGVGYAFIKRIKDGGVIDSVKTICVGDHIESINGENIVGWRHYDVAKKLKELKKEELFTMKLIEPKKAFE

IL16_3, Q14005 = biological target: IL16_3, Q14005
Chain of IL16_3, Q14005 (Q14005 1107-1207): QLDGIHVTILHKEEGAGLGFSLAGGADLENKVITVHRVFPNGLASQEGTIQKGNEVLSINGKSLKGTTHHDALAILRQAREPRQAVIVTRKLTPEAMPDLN

Inadl_4, Q8NI35 = biological target: Inadl_4, Q8NI35
Chain of Inadl_4, Q8NI35 (Q8NI35 547-651): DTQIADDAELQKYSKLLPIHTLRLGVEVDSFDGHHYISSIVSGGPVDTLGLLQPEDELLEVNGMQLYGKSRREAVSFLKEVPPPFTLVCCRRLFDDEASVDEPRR

NOS1, P29475 = biological target: NOS1, P29475
Chain of NOS1, P29475 (P29475 9-101): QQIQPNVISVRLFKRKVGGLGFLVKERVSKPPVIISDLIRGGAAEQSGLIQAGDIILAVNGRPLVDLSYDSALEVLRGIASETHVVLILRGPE

TJP1_3, Q07157 = biological target: TJP1_3, Q07157
Chain of TJP1_3, Q07157 (Q07157 416-512): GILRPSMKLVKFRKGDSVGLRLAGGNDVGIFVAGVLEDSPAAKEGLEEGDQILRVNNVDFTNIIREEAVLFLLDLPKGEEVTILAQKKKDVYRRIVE

FRMPD2_3, Q68DX3 = biological target: FRMPD2_3, Q68DX3
Chain of FRMPD2_3, Q68DX3 (Q68DX3 1073-1166): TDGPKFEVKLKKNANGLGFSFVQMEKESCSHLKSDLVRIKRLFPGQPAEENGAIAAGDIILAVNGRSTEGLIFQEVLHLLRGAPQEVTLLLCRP

MAGI1_2, Q96QZ7 = biological target: MAGI1_2, Q96QZ7
Chain of MAGI1_2, Q96QZ7 (Q96QZ7 456-580): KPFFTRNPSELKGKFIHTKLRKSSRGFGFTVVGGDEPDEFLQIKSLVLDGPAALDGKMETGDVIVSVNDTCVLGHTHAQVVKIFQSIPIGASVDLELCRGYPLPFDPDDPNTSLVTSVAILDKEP

NHERF3_4, Q5T2W1 = biological target: T5, NHERF3_4, Q5T2W1
T5 sequence (Q5T2W1 373-468, limits assumed, looked up): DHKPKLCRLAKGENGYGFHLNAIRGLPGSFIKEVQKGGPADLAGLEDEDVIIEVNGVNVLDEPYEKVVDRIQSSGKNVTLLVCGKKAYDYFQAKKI

NHERF4_4, Q86UT5 = biological target: NHERF4_4, Q86UT5
Chain of NHERF4_4, Q86UT5 (Q86UT5 464-550): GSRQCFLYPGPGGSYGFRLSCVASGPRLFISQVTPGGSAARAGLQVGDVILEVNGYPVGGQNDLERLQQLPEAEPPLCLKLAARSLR

SHANK1, Q9Y566 = biological target: T6, SHANK1, Q9Y566
T6 sequence (Q9Y566 658-767, limits assumed, looked up): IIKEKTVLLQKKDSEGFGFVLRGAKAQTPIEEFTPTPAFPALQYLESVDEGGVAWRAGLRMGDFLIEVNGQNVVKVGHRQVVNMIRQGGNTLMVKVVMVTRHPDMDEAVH

LRRC7, Q96NW7 = biological target: T7, LRRC7, Q96NW7
T7 sequence (Q96NW7 1440-1537, limits assumed, looked up): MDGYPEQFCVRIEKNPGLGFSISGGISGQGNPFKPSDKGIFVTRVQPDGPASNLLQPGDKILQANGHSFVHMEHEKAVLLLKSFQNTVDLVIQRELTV

Inadl_5, Q8NI35 = biological target: Inadl_5, Q8NI35
Chain of Inadl_5, Q8NI35 (Q8NI35 673-780): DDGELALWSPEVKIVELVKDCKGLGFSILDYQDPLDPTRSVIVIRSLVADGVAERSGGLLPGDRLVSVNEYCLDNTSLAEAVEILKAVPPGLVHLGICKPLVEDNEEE

DLG4_3, P78352 = biological target: DLG4_3, P78352
Chain of DLG4_3, P78352 (P78352 306-403): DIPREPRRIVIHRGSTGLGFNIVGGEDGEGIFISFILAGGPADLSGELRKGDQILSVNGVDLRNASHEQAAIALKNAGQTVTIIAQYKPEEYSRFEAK

LIMK2, P53671 = biological target: LIMK2, P53671
Chain of LIMK2, P53671 (P53671 143-248): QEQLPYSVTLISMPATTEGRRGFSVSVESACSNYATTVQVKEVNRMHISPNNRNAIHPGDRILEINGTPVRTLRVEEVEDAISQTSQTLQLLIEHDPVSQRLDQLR

LNX1_3, Q8TBB1 = biological target: LNX1_3, Q8TBB1
Chain of LNX1_3, Q8TBB1 (Q8TBB1 500-596): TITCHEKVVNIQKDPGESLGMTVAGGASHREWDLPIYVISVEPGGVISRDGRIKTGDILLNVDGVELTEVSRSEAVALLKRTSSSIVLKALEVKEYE

PDZRN3_1, Q9UPQ7 = biological target: T8, PDZRN3_1, Q9UPQ7
T8 sequence (Q9UPQ7 244-349, limits assumed, looked up): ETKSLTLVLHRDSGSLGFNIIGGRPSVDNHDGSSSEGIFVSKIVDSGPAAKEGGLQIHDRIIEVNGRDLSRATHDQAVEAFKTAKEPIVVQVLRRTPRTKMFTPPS

Inadl_1, Q8NI35 = biological target: Inadl_1, Q8NI35
Chain of Inadl_1, Q8NI35 (Q8NI35 113-229): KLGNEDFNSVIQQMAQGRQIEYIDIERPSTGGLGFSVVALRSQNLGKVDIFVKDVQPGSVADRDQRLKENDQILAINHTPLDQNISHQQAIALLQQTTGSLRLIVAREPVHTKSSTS

DLG3_3, Q92796 = biological target: T9, DLG3_3, Q92796
T9 sequence (Q92796 374-475, limits assumed, looked up): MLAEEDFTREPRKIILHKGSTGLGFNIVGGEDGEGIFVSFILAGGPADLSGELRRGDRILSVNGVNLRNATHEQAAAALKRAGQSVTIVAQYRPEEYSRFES

Inadl_9, Q8NI35 = biological target: Inadl_9, Q8NI35
Chain of Inadl_9, Q8NI35 (Q8NI35 1530-1615): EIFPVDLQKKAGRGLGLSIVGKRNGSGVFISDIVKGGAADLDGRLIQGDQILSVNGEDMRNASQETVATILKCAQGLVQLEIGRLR

Chain of GORASP1, Q9BQQ3 (Q9BQQ3 1-208): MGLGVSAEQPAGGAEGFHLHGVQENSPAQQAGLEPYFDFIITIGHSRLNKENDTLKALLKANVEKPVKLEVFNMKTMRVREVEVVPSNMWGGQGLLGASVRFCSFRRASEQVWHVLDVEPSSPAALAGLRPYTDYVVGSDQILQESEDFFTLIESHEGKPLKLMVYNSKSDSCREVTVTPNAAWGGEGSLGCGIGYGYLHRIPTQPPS

B1: PTH2R, P49190 (peptide)
chain: GCQGETEDVL
pKd (GORASP1, Q9BQQ3): below the threshold | pKd (GRID2IP_2, A4D2P6): below the threshold | pKd (SNX27, Q96L92): 4.52 | pKd (DLG5_1, Q8TDM6): below the threshold | pKd (FRMPD4, Q14CM0): 4.21 | pKd (APBA3_1, O96018): below the threshold | pKd (AHNAK1, Q09666): below the threshold | pKd (PDZD2_2, O15018): below the threshold | pKd (SIPA1L2, Q9P2F8): below the threshold | pKd (LNX2_3, Q8N448): below the threshold | pKd (GIPC2, Q8TF65): below the threshold | pKd (IL16_3, Q14005): below the threshold | pKd (Inadl_4, Q8NI35): below the threshold | pKd (NOS1, P29475): 3.67 | pKd (TJP1_3, Q07157): below the threshold | pKd (FRMPD2_3, Q68DX3): below the threshold | pKd (MAGI1_2, Q96QZ7): below the threshold | pKd (NHERF3_4, Q5T2W1): below the threshold | pKd (NHERF4_4, Q86UT5): below the threshold | pKd (SHANK1, Q9Y566): below the threshold | pKd (LRRC7, Q96NW7): below the threshold | pKd (Inadl_5, Q8NI35): below the threshold | pKd (DLG4_3, P78352): below the threshold | pKd (LIMK2, P53671): below the threshold | pKd (LNX1_3, Q8TBB1): below the threshold | pKd (PDZRN3_1, Q9UPQ7): below the threshold | pKd (Inadl_1, Q8NI35): below the threshold | pKd (DLG3_3, Q92796): below the threshold | pKd (Inadl_9, Q8NI35): below the threshold

B2: GJA1, P17302 (peptide)
chain: SRPRPDDLEI
pKd (GORASP1, Q9BQQ3): below the threshold | pKd (GRID2IP_2, A4D2P6): below the threshold | pKd (SNX27, Q96L92): below the threshold | pKd (DLG5_1, Q8TDM6): below the threshold | pKd (FRMPD4, Q14CM0): below the threshold | pKd (APBA3_1, O96018): below the threshold | pKd (AHNAK1, Q09666): below the threshold | pKd (PDZD2_2, O15018): below the threshold | pKd (SIPA1L2, Q9P2F8): below the threshold | pKd (LNX2_3, Q8N448): below the threshold | pKd (GIPC2, Q8TF65): below the threshold | pKd (IL16_3, Q14005): below the threshold | pKd (Inadl_4, Q8NI35): below the threshold | pKd (NOS1, P29475): below the threshold | pKd (TJP1_3, Q07157): below the threshold | pKd (FRMPD2_3, Q68DX3): below the threshold | pKd (MAGI1_2, Q96QZ7): below the threshold | pKd (NHERF3_4, Q5T2W1): below the threshold | pKd (NHERF4_4, Q86UT5): below the threshold | pKd (SHANK1, Q9Y566): below the threshold | pKd (LRRC7, Q96NW7): below the threshold | pKd (Inadl_5, Q8NI35): below the threshold | pKd (DLG4_3, P78352): below the threshold | pKd (LIMK2, P53671): below the threshold | pKd (LNX1_3, Q8TBB1): below the threshold | pKd (PDZRN3_1, Q9UPQ7): below the threshold | pKd (Inadl_1, Q8NI35): below the threshold | pKd (DLG3_3, Q92796): below the threshold | pKd (Inadl_9, Q8NI35): below the threshold

B3: GRIA3, P42263 (peptide)
chain: NVYGTESVKI
pKd (GORASP1, Q9BQQ3): below the threshold | pKd (GRID2IP_2, A4D2P6): below the threshold | pKd (SNX27, Q96L92): below the threshold | pKd (DLG5_1, Q8TDM6): below the threshold | pKd (FRMPD4, Q14CM0): below the threshold | pKd (APBA3_1, O96018): below the threshold | pKd (AHNAK1, Q09666): below the threshold | pKd (PDZD2_2, O15018): below the threshold | pKd (SIPA1L2, Q9P2F8): below the threshold | pKd (LNX2_3, Q8N448): below the threshold | pKd (GIPC2, Q8TF65): below the threshold | pKd (IL16_3, Q14005): below the threshold | pKd (Inadl_4, Q8NI35): below the threshold | pKd (NOS1, P29475): 3.56 | pKd (TJP1_3, Q07157): below the threshold | pKd (FRMPD2_3, Q68DX3): below the threshold | pKd (MAGI1_2, Q96QZ7): below the threshold | pKd (NHERF3_4, Q5T2W1): below the threshold | pKd (NHERF4_4, Q86UT5): 3.95 | pKd (SHANK1, Q9Y566): below the threshold | pKd (LRRC7, Q96NW7): below the threshold | pKd (Inadl_5, Q8NI35): below the threshold | pKd (DLG4_3, P78352): below the threshold | pKd (LIMK2, P53671): below the threshold | pKd (LNX1_3, Q8TBB1): below the threshold | pKd (PDZRN3_1, Q9UPQ7): below the threshold | pKd (Inadl_1, Q8NI35): below the threshold | pKd (DLG3_3, Q92796): below the threshold | pKd (Inadl_9, Q8NI35): below the threshold
